Kd data for one substance are collected here from paper PMC5595889.

The test deals with mouse importin α1 lacking the N-terminal importin-β-binding domain (ΔIBB-importin α1) (mouse). Put plainly: ITC. Background: Isothermal titration calorimetry measures the heat released or taken up as one component is titrated into another.

The substance influenza NLS1 peptide (1-…-13) had a Kd of 4.9 µM.

What is called Kd is a measure of binding affinity in units of concentration. A lower Kd goes with tighter binding.
